Test results reported in patent US20250361268A1, “NOVEL ANTI-INFLAMMATORY PEPTIDE AND USE THEREOF” (NOVACELL TECHNOLOGY INC., priority 2022, published 2025).
Values belong to the molecule of their own block, whether it stands above or below them. Peptide text beside a SMILES is read from it.

Legend:
[1] = biological target: T1, FPR1 (Homo sapiens, UniProt P21462); test: Change in calcium activity by peptide, FPR1 activation effect; assay type: cell-based; settings: calcium activity (Fura-2), graded per Table 3, read-out: EC50 for [Ca^2+] FPR1
T1 sequence (P21462 1-350): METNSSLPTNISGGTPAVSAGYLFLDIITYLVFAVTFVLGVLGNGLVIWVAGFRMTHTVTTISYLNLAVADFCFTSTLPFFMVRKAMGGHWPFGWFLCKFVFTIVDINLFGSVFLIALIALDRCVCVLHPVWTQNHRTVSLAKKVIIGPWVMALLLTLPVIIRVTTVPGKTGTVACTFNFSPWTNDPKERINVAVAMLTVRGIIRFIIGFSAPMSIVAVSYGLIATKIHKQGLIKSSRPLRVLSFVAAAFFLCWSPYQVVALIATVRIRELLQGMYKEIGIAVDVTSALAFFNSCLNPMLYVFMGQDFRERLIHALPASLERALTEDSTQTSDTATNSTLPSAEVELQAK
Outline: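 Cells plated at 3×10^5 per well the day before were loaded with Fura-2 for 1 h at 37 °C, then kept 30 min in the dark at room temperature. Peptide-evoked calcium changes were recorded on a FlexStation 3.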

[2] = tested on: RAW264.7 cell line; test: Cytokine inhibition ability: LPS-induced cytokine gene expression in RAW264.7 macrophages; assay type: cell-based, mouse; settings: grade of reduction rate of gene expression, peptide 100 nM, LPS 200 ng/mL, 6 hours
Protocol: The present inventors observed the cytokine inhibition ability of the immunomodulatory peptide candidates prepared according to one example of the present invention. Specifically, to confirm whether the peptides reduce inflammatory responses in cells, changes in cytokine gene expression in cells upon inflammation was measured.
The present inventors used a RAW264.7 cell line, that is, mouse macrophages, and used lipopolysaccharide (LPS; Sigma-Aldrich, #L2630), which is the main component of a gram-negative bacterial cell wall, as a material causing an inflammatory response. A peptide that had been dissolved in water at 100 μM was prepared.
In the present experiment, the cells were cultured in a DMEM (Lonza, #BE12-604F) containing 10% FBS and 1% penicillin-streptomycin under conditions of 37° C. and 5% CO2.
The cells were plated in a 24-well plate (Costar, #3603) at a density of 2.5×10^5 cells/well. After 24 hours, the prepared cells were treated with the peptide at 100 nM. After incubation at 37° C. for 30 minutes, to induce inflammation, 200 ng/mL of LPS was treated. After incubation at 37° C. for 6 hours, the cells in a medium-free state were treated with TRIzol™ (Invitrogen, #15596018) to lyse the cells. Through the given experimental method, RNA was obtained, cDNA was produced using a reverse transcriptase (Promega, #M1705). Afterward, a cytokine expression level was measured using SYBR Green (Enzynomics, RT530) and mouse primers of each inflammatory cytokine gene (TNFα, IL-6, and IL-1β).

[3] = biological target: T2, FPR2 (Homo sapiens, UniProt P25090); test: Change in calcium activity by peptide (Fura-2) in RBL cells overexpressing FPR2; assay type: cell-based; settings: calcium activity (Fura-2), graded per Table 3, read-out: EC50 for [Ca^2+] FPR2
T2 construct: expressed in transfected cells; host or cells: RBL cells (RBL-FPR2)
T2 sequence (P25090 1-351): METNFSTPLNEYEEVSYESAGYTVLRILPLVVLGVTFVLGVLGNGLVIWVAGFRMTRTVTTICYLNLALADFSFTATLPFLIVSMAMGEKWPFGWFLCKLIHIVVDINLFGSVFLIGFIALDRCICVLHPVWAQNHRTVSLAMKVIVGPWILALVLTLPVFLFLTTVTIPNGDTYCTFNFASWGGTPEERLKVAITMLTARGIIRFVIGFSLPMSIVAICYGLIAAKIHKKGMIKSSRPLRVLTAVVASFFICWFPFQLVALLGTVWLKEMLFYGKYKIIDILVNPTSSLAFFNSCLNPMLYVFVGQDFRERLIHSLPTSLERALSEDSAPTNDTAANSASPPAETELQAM
Outline: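 Rat basophilic leukemia cells overexpressing FPR2 loaded with Fura-2 (37 °C 1 h, then RT 30 min dark); peptides (0.5 mM stocks in water or 50% DMSO) diluted in HBSS + 20 mM HEPES and added on a plate reader, intracellular Ca2+ change recorded.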

[4] = biological target: T3, formyl peptide receptor 2 (FPR2) (UniProt P25090 1-351, limits assumed); test: cell-based or functional assay
T3 sequence (looked up): T2 sequence (P25090 1-351)

[5] = biological target: T4, FPR1 (UniProt P21462 1-350, limits assumed); test: cell-based or functional assay
T4 sequence (looked up): T1 sequence (P21462 1-350)

Molecule: CCCCCCCC(=O)N[C@@H](CCCNC(=N)N)C(=O)N[C@@H](CCSC)C(=O)N[C@@H](CCCNC(=N)N)C(=O)N[C@@H](Cc1ccc(O)cc1)C(=O)N[C@@H](CCCCN)C(=O)N[C@@H](Cc1ccc(O)cc1)C(=O)N[C@H](CCSC)C(N)=O [Peptide 40] (HELM PEPTIDE1{[CCCCCCCC(=O)[*:2]].R.M.R.Y.K.Y.[dM].[am]}$$$$V2.0)
EC50 [1]: > 10 µM | Cytokine inhibition ability IL-1β [2]: A (81%-100%) | Cytokine inhibition ability IL-6 [2]: C (41%-60%) | Cytokine inhibition ability TNFα [2]: B (61%-80%) | EC50 [3]: 11 to 100 nM

Molecule: CSCC[C@H](NC(C)=O)C(=O)N[C@@H](CCCCN)C(=O)N[C@@H](Cc1ccc(O)cc1)C(=O)N[C@@H](CCCCN)C(=O)N[C@H](C(=O)N[C@H](CCSC)C(N)=O)C(C)C [Peptide 18] (HELM PEPTIDE1{[ac].M.K.Y.K.V.[dM].[am]}$$$$V2.0)
EC50 [1]: > 10 µM | Cytokine inhibition ability IL-1β [2]: A (81%-100%) | Cytokine inhibition ability IL-6 [2]: D (21%-40%) | Cytokine inhibition ability TNFα [2]: A (81%-100%) | EC50 [3]: < 10 nM

Molecule: CSCC[C@H](N)C(=O)N[C@@H](CCCCN)C(=O)N[C@@H](Cc1ccc(O)cc1)C(=O)N[C@@H](Cc1c[nH]c2ccccc12)C(=O)N1CCC[C@H]1C(=O)N[C@H](CCSC)C(N)=O [Peptide 113] (HELM PEPTIDE1{M.K.Y.W.P.[dM].[am]}$$$$V2.0)
EC50 [1]: 1 to 10 µM | Cytokine inhibition ability IL-1β [2]: D (21%-40%) | Cytokine inhibition ability IL-6 [2]: B (61%-80%) | Cytokine inhibition ability TNFα [2]: D (21%-40%) | EC50 [3]: < 10 nM

B1: peptide of SEQ ID NO 29 (peptide)
peptide: RWRYRVM
HELM: PEPTIDE1{R.W.R.Y.R.V.[dM].[am]}$$$$V2.0; N-terminus assumed
SMILES: CSCC[C@@H](NC(=O)[C@@H](NC(=O)[C@H](CCCNC(=N)N)NC(=O)[C@H](Cc1ccc(O)cc1)NC(=O)[C@H](CCCNC(=N)N)NC(=O)[C@H](Cc1c[nH]c2ccccc12)NC(=O)[C@@H](N)CCCNC(=N)N)C(C)C)C(N)=O
EC50 for [Ca2+] [4]: < 10 nM | EC50 for [Ca2+] [5]: > 10 µM

B2: peptide of SEQ ID NO 3 (peptide)
peptide: WRYKVM
HELM: PEPTIDE1{W.R.Y.K.V.[dM].[am]}$$$$V2.0; N-terminus assumed
SMILES: CSCC[C@@H](NC(=O)[C@@H](NC(=O)[C@H](CCCCN)NC(=O)[C@H](Cc1ccc(O)cc1)NC(=O)[C@H](CCCNC(=N)N)NC(=O)[C@@H](N)Cc1c[nH]c2ccccc12)C(C)C)C(N)=O
EC50 for [Ca2+] [4]: < 10 nM | EC50 for [Ca2+] [5]: > 10 µM

B3: peptide of SEQ ID NO 28 (peptide)
peptide: PMKYKVM
HELM: PEPTIDE1{[CCCCCCCC(=O)[*:2]].P.M.K.Y.K.V.[dM].[am]}$$$$V2.0
SMILES: CCCCCCCC(=O)N1CCC[C@H]1C(=O)N[C@@H](CCSC)C(=O)N[C@@H](CCCCN)C(=O)N[C@@H](Cc1ccc(O)cc1)C(=O)N[C@@H](CCCCN)C(=O)N[C@H](C(=O)N[C@H](CCSC)C(N)=O)C(C)C
EC50 for [Ca2+] [4]: < 10 nM | EC50 for [Ca2+] [5]: > 10 µM

B4: peptide of SEQ ID NO 33 (peptide)
peptide: RWRYKYM
HELM: PEPTIDE1{[ac].R.W.R.Y.K.Y.[dM].[am]}$$$$V2.0
SMILES: CSCC[C@@H](NC(=O)[C@H](Cc1ccc(O)cc1)NC(=O)[C@H](CCCCN)NC(=O)[C@H](Cc1ccc(O)cc1)NC(=O)[C@H](CCCNC(=N)N)NC(=O)[C@H](Cc1c[nH]c2ccccc12)NC(=O)[C@H](CCCNC(=N)N)NC(C)=O)C(N)=O
EC50 for [Ca2+] [4]: < 10 nM | EC50 for [Ca2+] [5]: > 10 µM

B6: peptide of SEQ ID NO 27 (peptide)
peptide: PMKYKVM
HELM: PEPTIDE1{[CCCC(=O)[*:2]].P.M.K.Y.K.V.[dM].[am]}$$$$V2.0
SMILES: CCCC(=O)N1CCC[C@H]1C(=O)N[C@@H](CCSC)C(=O)N[C@@H](CCCCN)C(=O)N[C@@H](Cc1ccc(O)cc1)C(=O)N[C@@H](CCCCN)C(=O)N[C@H](C(=O)N[C@H](CCSC)C(N)=O)C(C)C
EC50 for [Ca2+] [4]: < 10 nM | EC50 for [Ca2+] [5]: > 10 µM

B7: peptide of SEQ ID NO 26 (peptide)
peptide: PMKYKVM
HELM: PEPTIDE1{[ac].P.M.K.Y.K.V.[dM].[am]}$$$$V2.0
SMILES: CSCC[C@H](NC(=O)[C@@H]1CCCN1C(C)=O)C(=O)N[C@@H](CCCCN)C(=O)N[C@@H](Cc1ccc(O)cc1)C(=O)N[C@@H](CCCCN)C(=O)N[C@H](C(=O)N[C@H](CCSC)C(N)=O)C(C)C
EC50 for [Ca2+] [4]: < 10 nM | EC50 for [Ca2+] [5]: > 10 µM

B10: peptide of SEQ ID NO 30 (peptide)
peptide: RMRYRVM
HELM: PEPTIDE1{R.M.R.Y.R.V.[dM].[am]}$$$$V2.0; N-terminus assumed
SMILES: CSCC[C@H](NC(=O)[C@@H](N)CCCNC(=N)N)C(=O)N[C@@H](CCCNC(=N)N)C(=O)N[C@@H](Cc1ccc(O)cc1)C(=O)N[C@@H](CCCNC(=N)N)C(=O)N[C@H](C(=O)N[C@H](CCSC)C(N)=O)C(C)C
EC50 for [Ca2+] [4]: < 10 nM | EC50 for [Ca2+] [5]: > 10 µM

Other lines, results leading:

EC50 for [Ca2+] [4]: < 10 nM | EC50 for [Ca2+] [5]: > 10 µM
B5: peptide of SEQ ID NO 37 (peptide)
peptide: HWKYKYM
HELM: PEPTIDE1{[CCCC(=O)[*:2]].H.W.K.Y.K.Y.[dM].[am]}$$$$V2.0
SMILES: CCCC(=O)N[C@@H](Cc1c[nH]cn1)C(=O)N[C@@H](Cc1c[nH]c2ccccc12)C(=O)N[C@@H](CCCCN)C(=O)N[C@@H](Cc1ccc(O)cc1)C(=O)N[C@@H](CCCCN)C(=O)N[C@@H](Cc1ccc(O)cc1)C(=O)N[C@H](CCSC)C(N)=O

EC50 for [Ca2+] [4]: < 10 nM | EC50 for [Ca2+] [5]: > 10 µM
B8: peptide of SEQ ID NO 41 (peptide)
peptide: MRYKYM
HELM: PEPTIDE1{M.R.Y.K.Y.[dM].[am]}$$$$V2.0; N-terminus assumed
SMILES: CSCC[C@H](N)C(=O)N[C@@H](CCCNC(=N)N)C(=O)N[C@@H](Cc1ccc(O)cc1)C(=O)N[C@@H](CCCCN)C(=O)N[C@@H](Cc1ccc(O)cc1)C(=O)N[C@H](CCSC)C(N)=O

EC50 for [Ca2+] [4]: < 10 nM | EC50 for [Ca2+] [5]: > 10 µM
B9: peptide of SEQ ID NO 36 (peptide)
peptide: KWKYKYM
HELM: PEPTIDE1{[ac].K.W.K.Y.K.Y.[dM].[am]}$$$$V2.0
SMILES: CSCC[C@@H](NC(=O)[C@H](Cc1ccc(O)cc1)NC(=O)[C@H](CCCCN)NC(=O)[C@H](Cc1ccc(O)cc1)NC(=O)[C@H](CCCCN)NC(=O)[C@H](Cc1c[nH]c2ccccc12)NC(=O)[C@H](CCCCN)NC(C)=O)C(N)=O

EC50 for [Ca2+] [4]: < 10 nM | EC50 for [Ca2+] [5]: > 10 µM
B11: peptide of SEQ ID NO 38 (peptide)
peptide: RMRYKYM
HELM: PEPTIDE1{R.M.R.Y.K.Y.[dM].[am]}$$$$V2.0; N-terminus assumed
SMILES: CSCC[C@H](NC(=O)[C@@H](N)CCCNC(=N)N)C(=O)N[C@@H](CCCNC(=N)N)C(=O)N[C@@H](Cc1ccc(O)cc1)C(=O)N[C@@H](CCCCN)C(=O)N[C@@H](Cc1ccc(O)cc1)C(=O)N[C@H](CCSC)C(N)=O

EC50 for [Ca2+] [4]: < 10 nM | EC50 for [Ca2+] [5]: > 10 µM
B12: peptide of SEQ ID NO 35 (peptide)
peptide: WRYKYM
HELM: PEPTIDE1{W.R.Y.K.Y.[dM].[am]}$$$$V2.0; N-terminus assumed
SMILES: CSCC[C@@H](NC(=O)[C@H](Cc1ccc(O)cc1)NC(=O)[C@H](CCCCN)NC(=O)[C@H](Cc1ccc(O)cc1)NC(=O)[C@H](CCCNC(=N)N)NC(=O)[C@@H](N)Cc1c[nH]c2ccccc12)C(N)=O
